Target: recombinant FGF-2 (rFGF-2) of SEQ ID NO: 2 (bovine) (UniProt P03969)
Experiment: commercial ELISA for human FGF-2 (R&D Systems), cross-reactivity against human FGF-2

UniProt P03969, sequence (P03969 10-155 limits assumed): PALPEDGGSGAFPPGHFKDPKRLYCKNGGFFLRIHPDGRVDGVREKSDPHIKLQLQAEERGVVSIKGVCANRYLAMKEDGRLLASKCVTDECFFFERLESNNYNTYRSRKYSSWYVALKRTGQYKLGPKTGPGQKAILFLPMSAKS

cross-reactivity: 100%
Substance: commercially available ELISA (R&D Systems, Minneapolis Minn.) that was marketed for analysis of human FGF-2 (antibody)

Source: patent US20070142283A1
